# Laboratory results taken from patent publication US20250277022A1 (STAIDSON BEIJING BIOPHARMACEUTICALS, published 2025).
# Positions count from the first letter of the chain named.
# T1: human IL-7 (human, UniProt P13232 26-177)
# T1 construct: also called TSLP homologous protein IL-7
# T1 sequence (looked up): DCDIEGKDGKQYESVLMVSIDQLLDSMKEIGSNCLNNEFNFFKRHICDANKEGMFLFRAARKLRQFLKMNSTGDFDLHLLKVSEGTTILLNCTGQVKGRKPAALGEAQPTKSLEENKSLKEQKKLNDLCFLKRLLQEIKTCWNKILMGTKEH
# B1: TSLP-0101 (antibody, V domains shown)
# VH: QVQLQESGPGLVKPSETLSLTCAVSGYSISSGYGWSWIRQPPGKGLEWIGYISYYGSISYNPSLKSRVTISRDTSKNQFSLKLSSVTAADTAVYYCARTNLLYFDSWGQGTLVTVSS
# VL: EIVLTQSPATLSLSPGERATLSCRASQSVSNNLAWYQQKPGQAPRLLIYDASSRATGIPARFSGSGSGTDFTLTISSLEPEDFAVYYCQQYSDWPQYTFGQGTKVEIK
# B2: TSLP-0102 (antibody, V domains shown)
# VH: B1 VH with A23T
# VL: EIVMTQSPATLSLSPGERATLSCRASQSVSNNLAWYQQKPGQAPRLLIYDASSRATGIPARFSGSGSGTDFTLTISSLEPEDFAVYYCQQYSDWPQYTFGQGTKVEIK
# B3: TSLP-0104 (antibody, V domains shown)
# VH: B1 VH with R72V
# VL: B2 VL
# B4: TSLP-0105 (antibody, V domains shown)
# VH: B1 VH with R72V
# VL: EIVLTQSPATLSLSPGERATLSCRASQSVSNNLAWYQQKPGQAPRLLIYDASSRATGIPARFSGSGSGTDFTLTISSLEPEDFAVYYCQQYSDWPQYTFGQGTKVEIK
# B5: TSLP-0106 (antibody, V domains shown)
# VH: B1 VH with A23T, R72V
# VL: B2 VL
# B6: TSLP-0103 (antibody, V domains shown)
# VH: B1 VH with A23T
# VL: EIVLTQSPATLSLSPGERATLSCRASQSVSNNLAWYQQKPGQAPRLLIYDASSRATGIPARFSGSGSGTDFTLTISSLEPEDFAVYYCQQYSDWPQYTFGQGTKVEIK
# B7: TSLP-02 (antibody, V domains shown)
# VH: QVQLVQSGAEVKKPGSSVKVSCKASGFTFGSYGINWVRQAPGQGLEWLGVIVPLVGVTIYAEKFQGRVTITADTSTSTAYMELSSLRSEDTAVYYCARGQEYFYWYFDLWGQGTLVTVSS
# VL: QSALTQPPSASGSPGQSVTISCSGSSSDIGGYNRVSWYQQHPGKAPKLMIYDVSKRPSGVPDRFSGSKSGNTASLTVSGLQAEDEADYYCSSYAGTDTFILFGGGTKLTVL
# notes: also called parent antibody TSLP-02
# B8: TSLP-0201 (antibody, V domains shown)
# VH: B7 VH with L48M
# VL: B7 VL
# B9: TSLP-0108 (antibody, V domains shown)
# VH: B1 VH with I58T
# VL: B2 VL with Q96E, T98S
# B10: TSLP-0109 (antibody, V domains shown)
# VH: B1 VH with I58T, D105E
# VL: B2 VL with S28G, V29I, N31S, N32Y, S53N, R54L, A55Q, T56S, D93N, T98S
# B11: TSLP-0110 (antibody, V domains shown)
# VH: B1 VH with I58T
# VL: B2 VL with N31S, N32Y, A51T, D93N, T98S
# B12: TSLP-0111 (antibody, V domains shown)
# VH: B1 VH with I52F, I58T
# VL: B2 VL with N31S, D93N, T98S
# B13: TSLP-0112 (antibody, V domains shown)
# VH: B1 VH with I58T, S106Y
# VL: B2 VL with N31S, N32Y, T98S
# B14: TSLP-0203 (antibody, V domains shown)
# VH: B7 VH
# VL: B7 VL with S23T, S25T, N33D, D52G, G95S, T96G, D97H, I100G
# B15: TSLP-0204 (antibody, V domains shown)
# VH: B7 VH
# VL: B7 VL with S23T, S25T, D52E, S54N, P57S, S91T, I100V
# B16: TSLP-0205 (antibody, V domains shown)
# VH: B7 VH
# VL: B7 VL with S23T, S25T, S26T, D52E, I100A, L101I
# B17: TSLP-0206 (antibody, V domains shown)
# VH: B7 VH with N35S, G56D
# VL: B7 VL with S23T, S25T, S26I, D52E, I100V, L101F
# B18: TSLP-0207 (antibody, V domains shown)
# VH: B7 VH with N35S
# VL: B7 VL with S23T, S25T, D52E, V53F, S54N, T98I, I100V
# B19: TSLP-0301 (antibody, V domains shown)
# VH: EVQLVESGGGLVQPGGSLRLSCAASGFTFSNYDMTWVRQAPGKGLEWVSSITFASSYIYYADSVKGRFTISRDNAKNSLSLQMNSLRAEDTAVYYCTRGGGAYYGGSLDVWGQGVLVTVSS
# VL: DIVMTQTPLSLSVTPGEPASISCRSSQSLLHSNEYTYLHWYLQKPGQSPQLLIYLVSHRASGVPDRFSGSGSDTDFTLKISRVEAEDVGVYYCEQTLQTPFTFGGGTKVEIK
# B20: TSLP-0208 (antibody, V domains shown)
# VH: B7 VH with N35S, V52I, V55L, T58P, I59N, Q100A
# VL: B7 VL with S23T, S26N, D52E, V53I, I100V
# Biological target: T2, human TSLP (human, UniProt Q969D9 29-159)
# T2 sequence (Q969D9 29-159 R127A/R130S limits assumed): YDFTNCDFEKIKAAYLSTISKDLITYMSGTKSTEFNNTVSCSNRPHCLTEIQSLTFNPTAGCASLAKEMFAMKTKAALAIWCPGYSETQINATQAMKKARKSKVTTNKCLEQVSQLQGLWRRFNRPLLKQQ
# Assay: cell-based or functional assay
row,Binder,"IC50, inhibition of human TSLP-induced Stat5 activation (Stat5-luciferase reporter, Ba/F3 cells with hTSLPR and hIL7Ra) [ng/mL]"
1,B1,9.2
2,B2,11.4
3,B3,15.4
4,B4,18.2
5,B5,16.9
6,B6,12.9

# Biological target: T2, human TSLP
# Assay: cell-based or functional assay
# Remark: another data set of the same source
row,Binder,"IC50, inhibition of human TSLP-induced Stat5 activation (Stat5-luciferase reporter, Ba/F3 cells with hTSLPR and hIL7Ra) [ng/mL]"
1,B7,6.67
2,B8,4.63

# Biological target: T2, human TSLP
# Assay: cell-based or functional assay
# Remark: another data set of the same source
row,Binder,"IC50, inhibition of human TSLP-induced Stat5 activation (Stat5-luciferase reporter, Ba/F3 cells with hTSLPR and hIL7Ra) [ng/mL]"
1,B9,10.8
2,B10,22.8
3,B11,24.5
4,B12,43.8
5,B13,30.8
6,B14,21.6
7,B15,18.9
8,B16,42.1
9,B17,18.3
10,B18,25
11,B19,41.7

# Biological target: T2, human TSLP
# Assay: cell-based or functional assay
# Remark: another data set of the same source
row,Binder,"IC50, inhibition of TSLP induced proliferation of Ba/F3-TSLPR-IL7Ra cells (CellTiter-Glo) [ng/mL]"
1,B9,39.4
2,B10,30.4
3,B11,129
4,B12,244
5,B13,214
6,B7,17.5
7,B8,18.5
8,B14,36.3
9,B15,42.2
10,B16,284
11,B17,65.1
12,B18,133
13,B19,217

# Biological target: T1, human IL-7
# Assay: ELISA on human IL-7
row,Binder,binding result
1,B7,no binding
2,B6,no binding

# Biological target: T2, human TSLP
# Assay: ELISA, plate coated with human TSLP, test antibodies as human IgG1
# Protocol: (§1) ELISA Screening: Monoclonal scFv antibodies were selected and subjected to ligand binding assays. The first assay was designed to identify scFv antibodies that bound human TSLP and/or cynomolgus TSLP. Briefly, a 96-well plate was coated with human TSLP or cynomolgus TSLP in PBS at 0.1 μg/well and left overnight at 4° C. Before loading the scFv antibodies, the plates were washed with TBST, blocked for 1-2 hours at 37° C. using 5% milk and washed again with TBST. Each scFv sample was first diluted to 40 μg/mL, and 150 μL was added to the first row of wells. The 40 μg/mL scFv samples were then serially diluted at a 1:3 ratio and added to the remaining wells. After incubating for an hour at 37° C., followed by washing with TBST for 6 times, 100 μl of the secondary antibody (HRP labeled mouse anti-flag (1:2500)) was added to each well. After incubation for an hour under 37° C., the plate was washed for 3 times using TBST. TMB was then added at 100 μL/well and incubated for 10-20 minutes at 37° C. 2 M H₂SO₄ was used to stop the reaction. The ELISA results (OD405) were then analyzed and the binding curves were generated by PRISM.
row,Binder,EC50 (read off the curve) [µg/mL]
1,B1,~0.03
2,B2,~0.04
3,B3,~0.04
4,B4,~0.05
5,B5,~0.05
6,B6,~0.04

# Biological target: T2, human TSLP
# Assay: as above
# Remark: another data set of the same source
# Protocol: as §1
row,Binder,EC50 (read off the curve) [µg/mL]
1,B9,~0.06
2,B10,~0.07
3,B11,~0.08
4,B12,~0.08
5,B13,~0.08

# Biological target: T2, human TSLP
# Assay: as above
# Remark: another data set of the same source
# Protocol: as §1
row,Binder,EC50 (read off the curve) [µg/mL]
1,B7,~0.09
2,B8,~0.07
3,B14,~0.1
4,B15,~0.1

# Biological target: T2, human TSLP
# Assay: as above
# Remark: another data set of the same source
# Protocol: as §1
row,Binder,EC50 (read off the curve) [µg/mL]
1,B16,~0.04
2,B17,~0.04
3,B18,~0.05
4,B20,~0.1

# Biological target: T3, cynomolgus monkey TSLP (cynomolgus monkey, UniProt A0A7N9CAT7 29-159)
# T3 construct: also called cynomolgus TSLP; recombinant cynomolgus monkey TSLP
# T3 sequence (A0A7N9CAT7 entry or part of it): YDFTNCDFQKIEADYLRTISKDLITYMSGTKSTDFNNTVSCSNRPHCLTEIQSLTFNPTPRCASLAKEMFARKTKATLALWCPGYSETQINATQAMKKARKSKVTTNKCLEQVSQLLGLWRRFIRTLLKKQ
# Assay: ELISA, plate coated with cynomolgus monkey TSLP, test antibodies as human IgG1
# Protocol: as §1
row,Binder,EC50 (read off the curve) [µg/mL]
1,B1,~0.7
2,B2,~0.7
3,B3,~0.7
4,B4,~0.7
5,B5,~0.9
6,B6,~0.7

# Biological target: T3, cynomolgus monkey TSLP
# Assay: as above
# Remark: another data set of the same source
# Protocol: as §1
row,Binder,EC50 (read off the curve) [µg/mL]
1,B7,~0.7
2,B8,~0.7
3,B14,~0.3
4,B15,~0.2

# Biological target: T3, cynomolgus monkey TSLP
# Assay: as above
# Remark: another data set of the same source
# Protocol: as §1
row,Binder,EC50 (read off the curve) [µg/mL]
1,B16,~0.3
2,B17,~0.3
3,B20,~0.3

# Biological target: T3, cynomolgus monkey TSLP
# Assay: as above
# Remark: another data set of the same source
# Protocol: as §1
row,Binder,EC50 (read off the curve) [µg/mL]
1,B19,~2

# Biological target: T4, TSLP-His (human, UniProt Q969D9 29-159, limits assumed)
# T4 construct: also called his-tagged TSLP; not shown: His-tag
# T4 sequence (Q969D9 29-159 R127A/R130S limits assumed): as the sequence (Q969D9 29-159 R127A/R130S limits assumed) above
# Assay: HTRF competition: blocking of TSLP-his binding to HEK293-Flag-hTSLPR-IL7Ra cells, IgG1
row,Binder,IC50 [µg/mL]
1,B9,0.158
2,B7,0.229
3,B8,0.351
4,B14,0.383
5,B15,0.428
6,B6,0.379
